Data on eleven molecules can be found in patent US20210252150A1 (VANDERBILT UNIVERSITY, published 2021).

Where a chain is given by its changes, count along the chain named. Names may count otherwise. Like-named read-outs stand apart in the source and are kept apart here.

For assay [1], the target named is HA of A/duck/Czechoslovakia/1956 (H4). Description: ELISA, recombinant HA.
Assay [2] has the same target. Description: ELISA, recombinant HA. This is another data set of the same source.
Assay [3] has as its target HA of A/Hong Kong/1/1968 (H3N2) (influenza A virus (H3N2), UniProt Q91MA7 17-530).
Assay [4] addresses HA of A/Singapore/1/1957 (H2) (influenza A virus (H2), UniProt Q67333 16-525).
The target of assay [5] is T1, HA of A/California/04/2009 (H1N1) (influenza A virus (H1N1), UniProt P26140 18-529). Description: ELISA, recombinant HA. For orientation: ELISA stands for enzyme-linked immunosorbent assay.
The target of assay [6] is T1, HA of A/California/04/2009 (H1N1). In words: ELISA, recombinant HA. The source holds these as a separate data set.
The target is the same in assay [7]. In words: BLI, Fab on immobilized biotinylated HA. (In BLI a coated tip is dipped into the sample, and binding shifts an interference pattern.)
Assay [8] shares this target. In words: BLI, Fab on immobilized biotinylated HA. This is another data set of the same source.
Assay [9] has the same target. Description: ELISA (highest dilution tested 1/50,000).

B1: FluA-20 (hybridoma-produced IgG) (antibody, V domains shown)
VH: QVQLQESGPGLVKPSETLSLTCSVSGVSVTSDIYYWTWIRQPPGKGLEWIGYIFYNGDTNYNPSLKSRVTMSIDTSKNEFSLRLTSVTAADTAVYFCARGTEDLGYCSSGSCPNHWGQGTLVTVSS
VL: DIQMTQSPSSLSASIGDRVTITCRPSQNIRSFLNWFQHKPGKAPKLLIYAASNLQSGVPSRFSGSGSGTEFTLTIRSLQPEDFATYYCQQSYNTPPTFGQGTKVEIK
For B1, the concentration for a half-maximal effect (EC50) (as a rule, the midpoint of the concentration-response curve) in [1] came out at 0.013 µg/mL; in assay [2], 0.007 µg/mL.

B2: rFluA-20 heavy chain mutant Y34A (antibody, V domains shown)
VH: B1 VH with Y34A
VL: B1 VL
In the case of B2, the EC50 was 0.07 µg/mL in [3] and 0.11 µg/mL in [4].

B3: rFluA-20 light chain mutant N53A (antibody, V domains shown)
VH: B1 VH
VL: B1 VL with N53A
In the case of B3, the half-maximal effective concentration (EC50) worked out at 0.06 µg/mL in assay [3] and 0.16 µg/mL in assay [4].

B4: rFluA-20 (recombinant FluA-20 IgG) (antibody, V domains shown)
VH: B1 VH
VL: B1 VL
Take B4: the EC50 turned out to be 0.018 µg/mL in assay [1] and 0.007 µg/mL in assay [2].

B5: rFluA-20 heavy chain mutant E97A (antibody, V domains shown)
VH: B1 VH with E102A
VL: B1 VL
In the case of B5, the EC50 stood at 0.07 µg/mL in assay [3] and 0.13 µg/mL in assay [4].

B6: rFluA-20 heavy chain mutant T96A (antibody, V domains shown)
VH: B1 VH with T101A
VL: B1 VL
As for B6, the EC50 in assay [3] came out at 0.1 µg/mL; in assay [4], 0.07 µg/mL.

B7: rFluA-20 heavy chain mutant Y100aA (antibody, V domains shown)
VH: B1 VH with Y106A
VL: B1 VL
B7 registered an EC50 in assay [3] of 0.07 µg/mL. Also, the “EC50 fold over wild-type rFluA-20” value in assay [4] was over 100 fold.

B8: UCA (antibody, V domains shown)
VH: QVQLQESGPGLVKPSETLSLTCTVSGGSVSSGSYYWSWIRQPPGKGLEWIGYIYYSGSTNYNPSLKSRVTISVDTSKNQFSLKLSSVTAADTAVYYCARGTEDLGYCSGGSCPNHWGQGTLVTV
VL: not shown
B8: the EC50 in assay [1] was found to be 0.025 µg/mL; in assay [5], 0.14 µg/mL; in assay [2], 0.013 µg/mL; in assay [6], 0.051 µg/mL.

B9: FluA-20 UCA Fab (unmutated common ancestor of FluA-20) (Fab, V domains shown)
VH: B8 VH
VL: not shown
On to B9, for which the Kd in assay [7] and in [8] was 1430 nM each time.

B10: H5.31 (antibody, V domains shown)
VH: EVQLVQSGGGLVQPGGSLRLSCEASRFTSSSYWITWVRQAPGKGLEWVANIKQDGSEKYFVDSVKGRFTISRDNASNSLYLQMSSLRAEDTAVYYCARGFLERLLLGRQGAYYYGMDVWGQGTTVTVSS
VL: DIQMTQSPSSLSASVGDRVTMTCRASQSISSSLNWYQQKPGKAPKLLIYAASNLQSGVPSRFSGSGSGTDFTLTISSLQPEDFATYYCQQSYTMPPELTFGGGTKVQIK
In assay [9], B10 came in with a half-maximal effective concentration (EC50) of 0.045 µg/mL.

B11: H5.28 (antibody, V domains shown)
VH: EVQLVESGGGLVQPGGSLRLSCAASGFTFSTYWMTWVRQAPGKGLEWVANINQDGGEKYFVDSVKGRFTISRDNAKNSLFLQMNTLRAEDTAVYYCARGFLERLLLGRQGAYYYGMDVWGQGTTVTVSS
VL: B10 VL with T20S, S28I, T93S, M94T, Q107E
Molecule B11 came in with a concentration for a half-maximal effect (EC50) in [9] of 0.074 µg/mL.
